Sequences and labels used below:
B1: VH:VL chains; a variant is named by its letters at X, in order (parent)
chain 1: QVQLVQSGAEVKKPGASVKVSCKASGYTFTDYXMHWVRQAPGQGLEWMGXVNPNXXXTTYNQKFEGRVTMTTDTSTSTAYMELRSLRSDDTAVYYCARXNXLDXWGQGTTVTVSS
chain 2: DIQMTQSPSSLSASVGDRVTITCSVSSSVSSIYLHWYQQKPGKAPKLLIYSTSNLASGVPSRFSGSGSGTDFTLTISSLQPEDFATYYCQVYSGYPLTFGGGTKVEIK

This data set covers variants of B1. Nature of the data set: yeast display scFab, FACS + sequencing. In short, it runs like this: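 Heavy-chain CDR mutant scFab yeast surface library, FACS-sorted after labelling with biotinylated ovalbumin (260 μg/mL in PBSB, 3 h, room temperature) or soluble membrane proteins (130 μg/mL, 20 min on ice), plus anti-Myc. Gates collected the top 25% and bottom 10% of binders, and samples from two replicates were deep sequenced. Non-specific binding call: a sequence was positive if found in ≥3 of 4 positive samples (membrane protein and ovalbumin pooled) and no negatives, and negative by the converse rule.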
For DKATGDAY, the non-specific binding call is on record as “no binding”. The value for DKGRSAGD was “no binding”.

As to AKEADDVA, the non-specific binding call is listed as “no binding”. On to YRAEGAWS, for which the non-specific binding call is on record as “binds”. The value for AAEKDDLA was “no binding”. For the variant DAARGAGD, the non-specific binding call is “no binding”. For YRGGDYLV, the non-specific binding call is recorded as “no binding”. Regarding DRGGDDWV, the non-specific binding call was “no binding”.

FRGRGALY: the non-specific binding call is reported as “binds”.

Turning to YRARSAVY, the non-specific binding call was “binds”. The value for YRARSAVA was “binds”; that for YRARSAVD was “binds”; that for SEGGSAAY was “no binding”. The value for VATGDDVY was “no binding”; that for YRTRGSWD was “binds”; that for YRAGTSGD was “binds”. The result for YRAKGAAA reads “binds”. Take YRTRDSVA: the non-specific binding call was “no binding”. On to VRTRASVD, for which the non-specific binding call was “binds”. The result for AATTDSGD reads “no binding”; that for DREEGDAV, “no binding”. The value for DTGEDDVY was “no binding”. The result for YTRAGSAA reads “binds”; that for FRARGSWV, “binds”. Take YRAKGSSS: the non-specific binding call is listed as “binds”. FRRRGSLV: the non-specific binding call is “binds”. The result for FKKGSFGA reads “binds”.

For the variant ARAKTSWV, the non-specific binding call is on record as “binds”. The result for VEEEGDSA reads “no binding”. The value for YRRGGAAA was “binds”; that for YRRGDAAF was “binds”. The value for FRGRGSAV was “binds”; that for YKGKGSSY was “binds”. Consider YRGRSAWD, for which the non-specific binding call is listed as “binds”.

With YTGTSAVV, the non-specific binding call was “no binding”.

As to VKERGAVA, the non-specific binding call is “no binding”.

Turning to DATGGSSA, the non-specific binding call is reported as “no binding”.

Take DRGKNDGD: the non-specific binding call was “no binding”. Take VRGRSDVF: the non-specific binding call is given as “no binding”. In the case of YRAGGYWY, the non-specific binding call was “binds”. As to YRRRGSVV, the non-specific binding call is reported as “binds”. The result for FKRGSSAA reads “binds”; that for YKRRSASA, “binds”. The value for VEAGTAVA was “no binding”; that for YRAGGYGY was “binds”.

Consider YRRRGSGF, for which the non-specific binding call is “binds”. The result for DEETNSGA reads “binds”; that for VTGGDSAS, “no binding”. The value for SGEEGSGA was “binds”; that for VAGTGDWY was “no binding”; that for FRTGDDWV was “no binding”.

For the variant SEARSDVD, the non-specific binding call is on record as “no binding”. Turning to YREGDASD, the non-specific binding call is on record as “no binding”. The value for SEEASAVY was “no binding”; that for FAGGDYGS was “binds”; that for SGREGDSA was “no binding”.

For FTKGSAGY, the non-specific binding call is “binds”. The value for FKGRDSGS was “binds”. For the variant VRTEDSGD, the non-specific binding call was “no binding”. The result for VERGGDSY reads “no binding”; that for VTTKSYLV, “no binding”.

Turning to YTGRGSAA, the non-specific binding call was “binds”. VEAGDDVY: the non-specific binding call is given as “no binding”.

With YRTRGSLY, the non-specific binding call is listed as “binds”. The value for YRKRGAGD was “binds”; that for VRGTGFGA was “binds”. The result for YRKGGAWV reads “binds”; that for FTTGGSAV chain 1 M48I, “no binding”. As to YRATDFVV, the non-specific binding call is reported as “binds”.

In the case of FRAGGSLY, the non-specific binding call was “binds”.

On to DEGRGDWY, for which the non-specific binding call is recorded as “no binding”.

Regarding YRRRGAAY, the non-specific binding call is recorded as “binds”. The result for YRAKGSAV reads “binds”. The result for SRGRGAWA reads “binds”; that for VRRRGALD, “binds”; that for SEEGTDWD, “no binding”. The result for FTGRAAAV reads “no binding”; that for VEEEGSGV, “no binding”; that for YREGDAAD, “no binding”.

With YRTRSAGV, the non-specific binding call is given as “binds”.

In the case of VKTGGDGD, the non-specific binding call was “no binding”. The result for YKRKSASD reads “binds”. The result for YEGGTDVV reads “no binding”; that for VEGGGDVD, “no binding”; that for YRARDDVF, “no binding”.

VKGRGSWY: the non-specific binding call is given as “binds”. The result for AKGGAAVY reads “no binding”.

Turning to SETGGFVV, the non-specific binding call is “no binding”.

For the variant FRAGGAWY, the non-specific binding call is “binds”. Take FRGRGDVV: the non-specific binding call was “binds”. The value for VAGTGDGV was “no binding”; that for FRGRGSGF was “binds”; that for SEGADAVA chain 1 G106S was “no binding”. The value for VTAGDDVA was “no binding”; that for VKGRGAWY was “binds”; that for DAGGASSV was “no binding”. The result for VRGRDYGD reads “binds”; that for YEGGGDLV, “no binding”. With YRAGGYVD, the non-specific binding call was “binds”. The value for DTTRADVD was “no binding”; that for YRKGSSGD was “binds”; that for DKGEGAGV was “no binding”. The result for DAGGGAVY reads “no binding”; that for ARGRGAWV, “binds”.

As for SEGTSAVF, the non-specific binding call is recorded as “no binding”. The value for YRRGGSGA was “binds”; that for YAAGGDGV was “no binding”; that for SRRGGYVS was “binds”.

As for DTGTGAGD, the non-specific binding call is on record as “no binding”.

Take YEARNAGA: the non-specific binding call is on record as “no binding”. Consider YKARGAWD, for which the non-specific binding call was “binds”. The result for VRERGAWD reads “binds”; that for DEAGTAVA, “no binding”. The result for YAAKNDGA reads “no binding”; that for FRGESSWD, “binds”; that for SKRRGSLS, “binds”. The result for YRRRGDWY reads “binds”; that for FEKGSDVA, “no binding”.

(Values after the emibetuzumab library of Makowski et al. (2022).)
